± gives the standard deviation of the averaged measurements.
System: ATP
Assay: switch fluorescence ratio, 500 uM ATP over buffer (Cy3 cluster intensity, sum of 5 cycles each) (fold (ratio)); higher = stronger signal-on switching upon ATP binding; sequences stand for … in TCGTCGGCAGCGTCAGATGTGTATAAGAGACAGTTTTTTTTTTTTTTTTTTTTTTTTT…TC
Conditions: aptamer strand: ATP DNA aptamer (quencher-CACCTGGGGGAGTATTGCGGAGGAAGG + anchor), 100 nM annealed; ATP concentration: 500 uM
How it was run: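 Cy3-labelled switching-strand clusters on a modified Illumina MiSeq flow-cell were annealed to 100 nM quencher-labelled ATP aptamer and imaged first in selection buffer, then after 15 min with 500 uM ATP at 22 °C. NaOH stripping and re-annealing separated each of five buffer/ATP cycles, and clusters outside 100-1000 RFU were excluded. The fluorescence ratio sums target-cycle Cy3 intensity over buffer-cycle Cy3 intensity per cluster and averages it per switch-domain sequence.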
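Note: ATP exposure 15 min at 22 °C before imaging.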

TTTGGAAAGT and TTTGGAATCG are within error of each other in switch fluorescence ratio: 0.991 ± 0.025 for the first, 1.01 ± 0.046 for the second.

TTTGGACAGG and TTTGGAGAAA are within error of each other in switch fluorescence ratio: 1.004 ± 0.0071 for the first, 0.989 ± 0.022 for the second.

TTTGGAGGCT and TTTGGAGTTT are within error of each other in switch fluorescence ratio: 1.02 ± 0.063 for the first, 0.987 ± 0.053 for the second.

TTTGGATATT and TTTGGATCTG are the same in switch fluorescence ratio: 1.03 ± 0.095 for the first, 1.034 ± 0.0094 for the second.

TTTGGCAGTC and TTTGGCCGGA are within error of each other in switch fluorescence ratio: 1.1 ± 0.13 for the first, 0.985 ± 0.036 for the second.

TTTGGGAATA and TTTGGGAATT are within error of each other in switch fluorescence ratio: 1.02 ± 0.02 for the first, 1.03 ± 0.035 for the second.

TTTGGGACAG and TTTGGGAGGC are within error of each other in switch fluorescence ratio: 0.981 ± 0.031 for the first, 1.01 ± 0.034 for the second.

TTTGGGATT and TTTGGGCATA are within error of each other in switch fluorescence ratio: 0.999 ± 0.036 for the first, 1.16 ± 0.19 for the second.

TTTGGGCGCC and TTTGGGCGCT are within error of each other in switch fluorescence ratio: 1 ± 0.018 for the first, 1.04 ± 0.048 for the second.

TTTGGGCTGT and TTTGGGGAGA are within error of each other in switch fluorescence ratio: 1.02 ± 0.021 for the first, 1 ± 0.041 for the second.

TTTGGGGAGT and TTTGGGGGCC are within error of each other in switch fluorescence ratio: 1 ± 0.088 for the first, 1.009 ± 0.0061 for the second.

TTTGGGTAAG and TTTGGGTCAA are within error of each other in switch fluorescence ratio: 1 ± 0.024 for the first, 1.012 ± 0.0074 for the second.

TTTGGGTGTT and TTTGGGTTAA are within error of each other in switch fluorescence ratio: 1.02 ± 0.046 for the first, 1.13 ± 0.29 for the second.

TTTGGTAGAA and TTTGGTCCGG are within error of each other in switch fluorescence ratio: 0.996 ± 0.025 for the first, 1.01 ± 0.029 for the second.

TTTGGTCCTT and TTTGGTGCCC are the same in switch fluorescence ratio: 1.029 ± 0.0088 for the first, 1.03 ± 0.029 for the second.

TTTGGTGCTT and TTTGGTGTTT are within error of each other in switch fluorescence ratio: 0.974 ± 0.045 for the first, 1.01 ± 0.035 for the second.

TTTGGTTATG and TTTGGTTCTT are within error of each other in switch fluorescence ratio: 0.982 ± 0.017 for the first, 1.02 ± 0.033 for the second.

TTTGGTTGGG and TTTGGTTTTC are within error of each other in switch fluorescence ratio: 1.03 ± 0.098 for the first, 1.02 ± 0.033 for the second.

Going from TTTGTAAAGG to TTTGTAACCT, the switch fluorescence ratio rises from 0.999 ± 0.013 to 1.74 ± 0.035.

TTTGTAGAAC and TTTGTAGAGT are within error of each other in switch fluorescence ratio: 1.02 ± 0.036 for the first, 1.01 ± 0.034 for the second.

Going from TTTGTAGGAT to TTTGTAGTGT, the switch fluorescence ratio falls from 1.04 ± 0.014 to 0.999 ± 0.026.

TTTGTATAGG and TTTGTATGCA are within error of each other in switch fluorescence ratio: 0.98 ± 0.035 for the first, 1.04 ± 0.057 for the second.

Compared with TTTGTCGATA, TTTGTCGTAT is lower in switch fluorescence ratio: 1.05 ± 0.025 for the first, 0.996 ± 0.014 for the second.

TTTGTGATAA and TTTGTGCGCA are within error of each other in switch fluorescence ratio: 0.969 ± 0.057 for the first, 1.07 ± 0.08 for the second.

TTTGTGCTTT and TTTGTGGGAT are within error of each other in switch fluorescence ratio: 1.01 ± 0.02 for the first, 0.998 ± 0.043 for the second.

TTTGTGGTTC and TTTGTGTATT are within error of each other in switch fluorescence ratio: 1 ± 0.039 for the first, 0.97768 ± 0.00065 for the second.

TTTGTTAACG and TTTGTTACGG are within error of each other in switch fluorescence ratio: 0.99 ± 0.013 for the first, 0.978 ± 0.046 for the second.

Compared with TTTGTTCACA, TTTGTTCATC is lower in switch fluorescence ratio: 1.06 ± 0.043 for the first, 0.97 ± 0.024 for the second.

TTTGTTCGTG and TTTGTTGGGC are within error of each other in switch fluorescence ratio: 0.96 ± 0.028 for the first, 0.981 ± 0.028 for the second.

TTTGTTTAAT and TTTGTTTAGG are within error of each other in switch fluorescence ratio: 1.002 ± 0.0012 for the first, 1.01 ± 0.04 for the second.

TTTGTTTGCG and TTTGTTTGGT are within error of each other in switch fluorescence ratio: 1.03 ± 0.032 for the first, 0.985 ± 0.036 for the second.

First: TTTTAAACTG
Second: TTTTAAAGAG
The switch fluorescence ratio of the first is higher: 1.1 ± 0.066 for the first, 0.97 ± 0.024 for the second.

TTTTAACAAT and TTTTAACCCT are within error of each other in switch fluorescence ratio: 1.021 ± 0.0098 for the first, 0.998 ± 0.013 for the second.

TTTTAACGCT and TTTTAACTGG are within error of each other in switch fluorescence ratio: 1.01 ± 0.039 for the first, 0.988 ± 0.034 for the second.

TTTTAAGAT and TTTTAAGCTG are within error of each other in switch fluorescence ratio: 1.02 ± 0.029 for the first, 1.05 ± 0.024 for the second.

TTTTAAGTTG and TTTTAATCGT are within error of each other in switch fluorescence ratio: 1.01 ± 0.045 for the first, 0.985 ± 0.063 for the second.

First: TTTTACAGAT
Second: TTTTACAGTT
The switch fluorescence ratio of the first is lower: 0.975 ± 0.017 for the first, 1.02 ± 0.023 for the second.

TTTTACCTTT and TTTTACGAGT are within error of each other in switch fluorescence ratio: 1 ± 0.032 for the first, 1.06 ± 0.16 for the second.

TTTTACGCCT and TTTTACTAGA are within error of each other in switch fluorescence ratio: 1.02 ± 0.012 for the first, 1.032 ± 0.0059 for the second.

TTTTACTGCT and TTTTACTTGT are within error of each other in switch fluorescence ratio: 1.15 ± 0.18 for the first, 1.025 ± 0.0037 for the second.

TTTTAGAATG and TTTTAGGAAG are within error of each other in switch fluorescence ratio: 1 ± 0.061 for the first, 0.9937 ± 0.0097 for the second.

TTTTAGGGAG and TTTTAGGGCA are within error of each other in switch fluorescence ratio: 0.992 ± 0.03 for the first, 1 ± 0.018 for the second.

Sequence TTTTAGGGCC has a switch fluorescence ratio of 0.999 ± 0.05.

From the supplement of paper PMC10126150
